The values that follow come from patent US20200299408A1 (Genentech, published 2020).

Where “and” joins values, the source holds several entries; their conditions need not be identical. Identical values can stand only once. Bounds are passed on as bounds.

Assay [1] addresses T1, murine CD3 (mouse, UniProt P22646 22-189).
T1 construct: also called mouse CD3
The experiment in a line: Biacore, monovalent KD of the CD3 arm; CD3 antigen not named on the sheet (reactivity mouse). Background: SPR reads the build-up and loss of mass on a sensor chip optically.

Assay [2] concerns the target T2, human HER2 on cells (human, UniProt P04626 23-1255).
T2 construct: whole, on cells; also called HER2 on SKBR3, MCF7, BT474, 3T3-HER2 and CT26-HER2 cells
The experiment in a line: KD (nM) box at the right of the FACS panels; method and antigen form are not stated on the sheet; taken as affinity of the HER2 arm, since the three TDBs differ only in it.

Assay [3] addresses T3, HER2 extracellular domain (ECD) (UniProt P04626 23-652, limits assumed).
T3 construct: extracellular domain; also called soluble HER2 extracellular domain; HER2 ECD
The experiment in a line: HER2 binding affinity of the HER2 arm; assay and form of HER2 not stated on the sheet or in the legend.

Assay [4] has as its target T2, human HER2 on cells. The experiment in a line: cell-based or functional assay.
The target of assay [5] is T3, HER2 extracellular domain (ECD). The experiment in a line: HER2 KD relative to 4D5 (WT); assay not stated.
The target in assay [6] is T4, single chain human CD3ε-26mer-CD3γ (CD3εγ) (human).
T4 construct: also called human CD3εγ
T4 chain: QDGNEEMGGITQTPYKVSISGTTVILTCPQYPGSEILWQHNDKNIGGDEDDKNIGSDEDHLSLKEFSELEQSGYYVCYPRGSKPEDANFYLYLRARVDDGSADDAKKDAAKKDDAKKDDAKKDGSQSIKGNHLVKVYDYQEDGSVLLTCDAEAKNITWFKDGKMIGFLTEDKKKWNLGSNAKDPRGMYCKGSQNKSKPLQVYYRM
The experiment in a line: Biacore, human CD3εγ on chip, TDB in flow through.

Assay [7] has as its target T5, human CD3 on T cells (human, UniProt P07766 22-207).
T5 construct: whole, on cells; On cells CD3ε stands in the CD3/TCR complex; also called CD3 antigen; CD3ε
The experiment in a line: FACS on Jurkat cells (CD3); EC50 table for the curves of FIGS. 21A-21B; source E. coli. On the procedure:
Binding affinities for the each of the CD3/CD20 TDBs were tested by Biacore or FACS analysis, as described above for the anti-CD3 antibodies. Briefly, for Biacore binding assays, human CD3εγ was immobilized on Biacore Series S CM5 sensor chip using the amine coupling kit from Biacore and CD3/CD20 TDBs or Fab variants thereof were in the flow through. For FACS binding assays, either Bjab cells (for B cell antigens) or Jurkat cells (for CD3 antigen) were incubated with various concentrations of TDB antibodies at 4° C. for 30 minutes, then cells were washed and incubated with 2nd antibody (anti-huIgG-PE; BD Bioscience) for another 15 minutes, before cells were washed again and ready for FACS analysis.

T1 sequence (P22646 22-189): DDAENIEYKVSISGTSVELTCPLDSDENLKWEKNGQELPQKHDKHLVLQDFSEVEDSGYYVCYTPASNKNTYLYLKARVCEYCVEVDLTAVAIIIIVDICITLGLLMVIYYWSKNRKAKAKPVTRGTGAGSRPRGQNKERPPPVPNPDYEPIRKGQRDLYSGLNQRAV

B1: 2C11 (antibody, V domains shown)
VH: EVQLVESGGGLVQPGKSLKLSCEASGFTFSGYGMHWVRQAPGRGLESVAYITSSSINIKYADAVKGRFTVSRDNAKNLLFLQMNILKSEDTAMYYCARFDWDKNYWGQGTMVTVSS
VL: DIQMTQSPSSLPASLGDRVTINCQASQDISNYLNWYQQKPGKAPKLLIYYTNKLADGVPSRFSGSGSGRDSSFTISSLESEDIGSYYCQQYYNYPWTFGPGTKLEIK
By Kd is commonly meant the constant that tells how readily two partners part at equilibrium. Low readings indicate a tighter complex, high ones a looser complex. Consider B1, for which the Kd in assay [1] was 22 nM.

B2: hu4D5.Y100A/UCHT1v9 TDB (bispecific antibody, V domains shown)
VH 1: not shown
VL 1: not shown
VH 2: EVQLVESGGGLVQPGGSLRLSCAASGYSFTGYTMNWVRQAPGKDLEWVALINPYKGVSTYNQKFKDRFTISVDKSKNTAYLQMNSLRAEDTAVYYCARSGYYGDSDWYFDVWGQGTLVTVSS
VL 2: DIQMTQSPSSLSASVGDRVTITCRASQDIRNYLNWYQQKPGKAPKLLIYYTSRLESGVPSRFSGSGSGTDYTLTISSLQPEDFATYYCQQGNTLPWTFGQGTKLELK
notes: also called hu4D5.Y100A-TDB
For the molecule B2, the Kd in assay [2] was 190 nM.

B3: hu4D5.Y100A (bispecific antibody, V domains shown)
VH 1: not shown
VL 1: not shown
VH 2: EVQLVQSGAEVKKPGASVKVSCKASGYTFTNYYIHWVRQAPGQGLEWIGWIYPGDGNTKYNEKFKGRATLTADTSTSTAYLELSSLRSEDTAVYYCARDSYSNYYFDYWGQGTLVTVSS
VL 2: DIVMTQSPDSLAVSLGERATINCKSSQSLLNSRTRKNYLAWYQQKPGQPPKLLIYWASTRESGVPDRFSGSGSGTDFTLTISSLQAEDVAVYYCTQSFILRTFGQGTKVEIK
notes: not the same molecule as m28, which has the UCHT1v9 arm; also called hu4D5.Y100A-40G5c HER2-TDB
Regarding B3, the Kd in assay [3] is 60 nM. Besides, the “EC50 of SKBR3 target cell killing” value in assay [4] is > 10 µg/mL. Moreover, the KD fold in assay [5] came out at 120 fold.

B4: 40G5c Ecoli (bispecific antibody, V domains shown)
VH 1: EVQLVESGGGLVQPGGSLRLSCAASGYTFTSYNMHWVRQAPGKGLEWVGAIYPGNGDTSYNQKFKGRFTISVDKSKNTLYLQMNSLRAEDTAVYYCARVVYYSNSYWYFDVWGQGTLVTVSS
VL 1: DIQMTQSPSSLSASVGDRVTITCRASSSVSYMHWYQQKPGKAPKPLIYAPSNLASGVPSRFSGSGSGTDFTLTISSLQPEDFATYYCQQWSFNPPTFGQGTKVEIK
VH 2: B3 VH 2
VL 2: B3 VL 2
modifications: E. coli-produced (aglycosylated) full-length knob-into-hole IgG; constant regions are not in the letters.
notes: E. coli material, aglycosylated; also called CD3/CD20 TDB 2H7v16/40G5c produced in E. coli
The term koff denotes the first-order rate constant of dissociation. The term kon denotes a measure of how fast the partners come together. A high value points to faster complex formation. Usually EC50 stands for the concentration needed to bring the measured effect to its halfway point. Read a high EC50 as a less potent agent. On to B4, for which, in assay [6], the dissociation constant (Kd) worked out at 71.5 nM, the koff was determined as 0.0256 s⁻¹ and the kon stood at 358000 M⁻¹ s⁻¹. In assay [7], the EC50 was 1.85 µg/mL and ~12 nM.
